Experimental data from patent US20230357716A1.

Molecular target: CD38 (UniProt P28907)
Test: cell-based or functional assay

- reduction in detectable CD38+ pbNK cell counts against the control condition: 21 fold
Substance: daratumumab (antibody)
